# ± gives the standard deviation of the averaged measurements.
# Assays:
# Experiment in all cases: protein stability index of tFT-peptide fusion (C-terminal peptide) (PSI (0-1 scale)); higher = more stable (slower turnover)
# Saccharomyces cerevisiae [1] = conditions: temperature: 30 C
# Description: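 MPS profiling in S. cerevisiae of the yeast C-terminome library: the last 12 aa of each annotated ORF are fused to the C-terminus of a sfGFP-mCherry timer, after a GGGS linker. Cells are FACS-sorted into 8 mCherry/sfGFP bins and deep-sequenced. PSI runs from 0 (unstable) to 1 (stable); wild type and das1Δ backgrounds, two technical replicates each.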
# Saccharomyces cerevisiae [2] = test system: Saccharomyces cerevisiae
# Description: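 MPS profiling in S. cerevisiae of the tFT-X12 degron library: putative degron peptides plus stable controls, 12 aa, fused to the C-terminus of a sfGFP-mCherry timer. Cells are FACS-sorted into 8 mCherry/sfGFP bins and deep-sequenced. PSI runs from 0 (unstable) to 1 (stable). Backgrounds are wild type, das1Δ and doa10Δ at 30 °C, and wild type, das1Δ, cdc34-1 and cdc53-1 at 37 °C; 2-3 technical replicates each.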
# Saccharomyces cerevisiae [3] = conditions: genetic background: wild type; temperature: 30 C
# [4] = genetic background: das1 deletion
# [5] = genetic background: cdc34-1, temperature: 37 C
# [6] = genetic background: cdc53-1, temperature: 37 C
# [7] = genetic background: das1 deletion, temperature: 30 C
# [8] = genetic background: das1 deletion, temperature: 37 C
# [9] = genetic background: doa10 deletion, temperature: 30 C
# [10] = genetic background: wild type, temperature: 30 C
# [11] = genetic background: wild type, temperature: 37 C
Sequence,protein stability index (Saccharomyces cerevisiae [1]; [4]),protein stability index (Saccharomyces cerevisiae [1]; genetic background: wild type),protein stability index (Saccharomyces cerevisiae [2]; [5]),protein stability index (Saccharomyces cerevisiae [2]; [6]),protein stability index (Saccharomyces cerevisiae [2]; [7]),protein stability index (Saccharomyces cerevisiae [2]; [8]),protein stability index (Saccharomyces cerevisiae [2]; [9]),protein stability index (Saccharomyces cerevisiae [2]; [10]),protein stability index (Saccharomyces cerevisiae [2]; [11]),protein stability index (Saccharomyces cerevisiae [3])
ELIEDPRKMLLW [KGD2 C-terminal 12 aa],0.694 ± 0.014,0.69 ± 0.033,,,,,,,,
TSIEEDLASKSE [RTA1 C-terminal 12 aa],0.689 ± 0.02,0.676 ± 0.008,,,,,,,,
KDEINYLNSKLK [SPA2 C-terminal 12 aa],0.692 ± 0.07,0.706 ± 0.083,,,,,,,,
PPFDFRLLFLLV [YGL165C C-terminal 12 aa],0.542 ± 0.033,0.269 ± 0.0091,,,,,,,,
GNLRDTLIETYS [TIF6 C-terminal 12 aa],0.6559 ± 0.0033,0.679 ± 0.0088,,,,,,,,
TEFMNFWINVLP [RSC4 C-terminal 12 aa],0.725 ± 0.028,0.715 ± 0.02,,,,,,,,
IHDFPKSHIVDF [IKI3 C-terminal 12 aa],0.7325 ± 0.0027,0.733 ± 0.025,,,,,,,,
WPRVASNSGVVV [RPL23A C-terminal 12 aa],0.7042 ± 0.0044,0.679 ± 0.018,,,,,,,,
CDEVVEHVKASA [PCM1 C-terminal 12 aa],0.708 ± 0.0093,0.687 ± 0.017,,,,,,,,
RKTIRRDLASLV [TMA108 C-terminal 12 aa],0.691 ± 0.01,0.571 ± 0.031,,,,,,,,
AHNFKVPETSKG [PAN2 C-terminal 12 aa],0.696 ± 0.032,0.677 ± 0.022,,,,,,,,
FSFSFYFALASF,,,0.474 ± 0.047,0.514 ± 0.0099,0.425 ± 0.018,0.495 ± 0.011,0.41 ± 0.0077,0.422 ± 0.0075,0.483 ± 0.034,0.4603 ± 0.00095
LWFFVVVVVRWV,,,0.102 ± 0.014,0.135 ± 0.0081,0.149 ± 0.032,0.2611 ± 0.0017,0.139 ± 0.019,0.136 ± 0.027,0.183 ± 0.03,0.189 ± 0.053
LRVGVRSWGGKW,,,0.4323 ± 0.0013,0.5125 ± 0.0013,0.4299 ± 0.0014,0.4369 ± 0.002,0.439 ± 0.013,0.4346 ± 0.0031,0.439 ± 0.014,0.433 ± 0.0069
FVSFFRWLLVSI,,,0.267 ± 0.016,0.201 ± 0.04,0.358 ± 0.039,0.4432 ± 0.0011,0.211 ± 0.017,0.163 ± 0.015,0.218 ± 0.0089,0.152 ± 0.028
LLLRWWLYSCCP,,,0.411 ± 0.027,0.495 ± 0.012,0.324 ± 0.032,0.4667 ± 0.0026,0.319 ± 0.016,0.328 ± 0.017,0.478 ± 0.012,0.42 ± 0.034
VTSVARVVLHLL,,,0.526 ± 0.018,0.681 ± 0.031,0.606 ± 0.027,0.7016 ± 0.0041,0.0931 ± 0.019,0.115 ± 0.021,0.165 ± 0.0027,0.3069 ± 0.0026

Sequence,protein stability index (Saccharomyces cerevisiae [1]; [4]),protein stability index (Saccharomyces cerevisiae [1]; genetic background: wild type),protein stability index (Saccharomyces cerevisiae [2]; [5]),protein stability index (Saccharomyces cerevisiae [2]; [6]),protein stability index (Saccharomyces cerevisiae [2]; [7]),protein stability index (Saccharomyces cerevisiae [2]; [8]),protein stability index (Saccharomyces cerevisiae [2]; [9]),protein stability index (Saccharomyces cerevisiae [2]; [10]),protein stability index (Saccharomyces cerevisiae [2]; [11]),protein stability index (Saccharomyces cerevisiae [3])
SEVMVGLRLTLN,,,0.67 ± 0.051,0.728 ± 0.018,0.628 ± 0.033,0.7149 ± 0.0029,0.282 ± 0.0065,0.318 ± 0.03,0.545 ± 0.029,0.416 ± 0.038
GWCLLRVLVLVW,,,0.0502 ± 0.035,0.043 ± 0.0082,0.0937 ± 0.023,0.107 ± 0.0087,0.104 ± 0.024,0.0811 ± 0.02,0.0921 ± 0.035,0.175 ± 0.022
ASCFFLFVLRVF,,,0.0589 ± 0.0071,0.113 ± 0.0091,0.169 ± 0.016,0.271 ± 0.0072,0.13 ± 0.0043,0.112 ± 0.017,0.14 ± 0.019,0.233 ± 0.041
RIFWMFFSQHIG,,,0.569 ± 0.011,0.761 ± 0.054,0.652 ± 0.019,0.7247 ± 0.00085,0.106 ± 0.0093,0.139 ± 0.024,0.288 ± 0.017,0.197 ± 0.068
FLVVSSVGFPLL,,,0.676 ± 0.017,0.73 ± 0.0085,0.626 ± 0.018,0.729 ± 0.027,0.618 ± 0.011,0.628 ± 0.014,0.714 ± 0.014,0.467 ± 0.027
PAMPTEPKSSSG,,,0.667 ± 0.019,0.7403 ± 0.0028,0.629 ± 0.015,0.716 ± 0.034,0.644 ± 0.015,0.667 ± 0.033,0.717 ± 0.0095,0.7016 ± 0.0016
WLFRCFLFVVGG,,,0.39 ± 0.025,0.441 ± 0.013,0.371 ± 0.025,0.46 ± 0.0069,0.413 ± 0.019,0.366 ± 0.016,0.4363 ± 0.0023,0.422 ± 0.0045
NAGSHHAAVKLG,,,0.664 ± 0.064,0.74 ± 0.027,0.6411 ± 0.0016,0.7163 ± 0.001,0.222 ± 0.018,0.266 ± 0.023,0.502 ± 0.012,0.399 ± 0.06
RYKIEKKKLMNN,,,0.667 ± 0.019,0.741 ± 0.18,0.602 ± 0.01,0.7361 ± 0.003,0.182 ± 0.0036,0.235 ± 0.035,0.448 ± 0.048,0.42 ± 0.038
CMPVYYTVVIRL,,,0.177 ± 0.052,0.102 ± 0.028,0.204 ± 0.029,0.294 ± 0.015,0.246 ± 0.021,0.159 ± 0.024,0.31 ± 0.021,0.296 ± 0.021
VAVYVGVGVSLG,,,0.454 ± 0.045,0.523 ± 0.048,0.311 ± 0.03,0.546 ± 0.004,0.2819 ± 0.0021,0.33 ± 0.017,0.511 ± 0.039,0.423 ± 0.0046
GCLFASWPLAVC,,,0.104 ± 0.026,0.109 ± 0.0041,0.214 ± 0.022,0.2564 ± 0.0019,0.166 ± 0.008,0.198 ± 0.016,0.209 ± 0.0077,0.303 ± 0.043
FMCFVLPVFVLV,,,0.247 ± 0.013,0.282 ± 0.034,0.222 ± 0.029,0.389 ± 0.0074,0.196 ± 0.018,0.212 ± 0.017,0.344 ± 0.014,0.306 ± 0.024
VLAYFCYVVFVI,,,0.306 ± 0.01,0.343 ± 0.0056,0.27 ± 0.0087,0.3896 ± 0.0036,0.291 ± 0.0044,0.263 ± 0.011,0.354 ± 0.0069,0.314 ± 0.016
LVFPRWACSLVF,,,0.344 ± 0.0079,0.3661 ± 0.0021,0.307 ± 0.025,0.426 ± 0.0075,0.263 ± 0.0029,0.288 ± 0.037,0.406 ± 0.019,0.3762 ± 0.00049
LCSVVIFCLVWG,,,0.117 ± 0.0048,0.263 ± 0.041,0.198 ± 0.03,0.343 ± 0.044,0.177 ± 0.008,0.182 ± 0.019,0.306 ± 0.0083,0.324 ± 0.022
WSFPFFLLPFLF,,,0.393 ± 0.0059,0.352 ± 0.0092,0.44 ± 0.022,0.5103 ± 0.0048,0.25 ± 0.0094,0.211 ± 0.014,0.305 ± 0.021,0.296 ± 0.034

# Reference: the supplement of paper PMC10724198
